{"source": "patent US20250002586A1", "about": "(CDR LIFE, published 2025)", "binders": {"B1": {"name": "CDR-14 (bispecific antibody)", "heavy": "EVQLVESGGGLVQPGGSLRLSCAASGFTFSTYAMNWVRQAPGKGLEWVGRIRSKYNNYATYYADSVKGRFTISRDDSKNTLYLQMNSLRAEDTAVYYCVRHGNFGNSYVSWFAYWGQGTLVTVSSASTKGPSVFPLAPSSKSTSGGTAALGCLVKDYFPEPVTVSWNSGALTSGVHTFPAVLQSSGLYSLSSVVTVPSSSLGTQTYICNVNHKPSNTKVDKRVEPKSCGGGGSSYELTQPPSVSVSPGQTASITCTADTLSRSYASWYQQKPGQSPVLVIYRDTSRPSGIPERFSGSNSGNTATLTISGTQAMDEADYYCATSDGSGSNFQLFGGGTKLTVLGGGGGGSGGGGSGGGGSGGGGSESQVLESGGGSVQPGGSLRLSCTVSGFSLSNYAMSWVRQAPGKGLEYIGIVSSGGTTYYASWAKGRFTISKDTSKNTVYLQMNSLRAEDTASYYCAKDLYYGPTTYSAFNLWGQGTSVTVSS", "light": "QAVVTQEPSLTVSPGGTVTLTCRSSTGAVTTSNYANWVQQKPGQAPRGLIGGTNKRAPGVPARFSGSLLGGKAALTISGAQPEDEADYYCALWYSNHWVFGGGTKLTVLGTVAAPSVFIFPPSDEQLKSGTASVVCLLNNFYPREAKVQWKVDNALQSGNSQESVTEQDSKDSTYSLSSTLTLSKADYEKHKVYACEVTHQGLSSPVTKSFNRGECGGGGSSYELTQPPSVSVSPGQTASITCTADTLSRSYASWYQQKPGQSPVLVIYRDTSRPSGIPERFSGSNSGNTATLTISGTQAMDEADYYCATSDGSGSNFQLFGGGTKLTVLGGGGGGSGGGGSGGGGSGGGGSESQVLESGGGSVQPGGSLRLSCTVSGFSLSNYAMSWVRQAPGKGLEYIGIVSSGGTTYYASWAKGRFTISKDTSKNTVYLQMNSLRAEDTASYYCAKDLYYGPTTYSAFNLWGQGTSVTVSS", "notes": "no Fc"}, "B2": {"name": "CDR-12 (bispecific antibody)", "heavy": "B1 heavy with Y55A, N106D", "light": "B1 light with R23G, Q44K, A45S", "notes": "no Fc"}, "B3": {"name": "CDR-15 (bispecific antibody)", "heavy": "B1 heavy with N106D, Y470Q", "light": "QAVVTQEPSLTVSPGGTVTLTCGSSTGAVTTSNYANWVQQKPGKSPRGLIGGTNKRAPGVPARFSGSLLGGKAALTISGAQPEDEADYYCALWYSNHWVFGGGTKLTVLGQPKAAPSVTLFPPSSEELQANKATLVCLISDFYPGAVTVAWKADSSPVKAGVETTTPSKQSNNKYAASSYLSLTPEQWKSHRSYSCQVTHEGSTVEKTVAPTECSGGGGSSYELTQPPSVSVSPGQTASITCTADTLSRSYASWYQQKPGQSPVLVIYRDTSRPSGIPERFSGSNSGNTATLTISGTQAMDEADYYCATSDGSGSNFQLFGGGTKLTVLGGGGGGSGGGGSGGGGSGGGGSESQVLESGGGSVQPGGSLRLSCTVSGFSLSNYAMSWVRQAPGKGLEYIGIVSSGGTTYYASWAKGRFTISKDTSKNTVYLQMNSLRAEDTASYYCAKDLYYGPTTQSAFNLWGQGTSVTVSS"}, "B4": {"name": "CDR-13 (bispecific antibody)", "heavy": "B1 heavy with N106D", "light": "B1 light with R23G, Q44K, A45S", "notes": "no Fc"}, "B5": {"name": "CDR-8 (bispecific antibody)", "heavy": "B1 heavy with N106D, S323R, D324P, G325S", "light": "B3 light with S310R, D311P, G312S, Q457Y", "notes": "no Fc; also called dual pMHC TCE; dual pMHC-targeting T cell engager in Fab-(scFv)2 format"}, "B6": {"name": "CDR-6 (bispecific antibody)", "heavy": "EVQLVESGGGSVQPGGSLRLSCAASGFTFSTYAMNWVRQAPGKGLEWVGRIRSKANNYATYYADSVKGRFTISRDDSKNTLYLQMNSLRAEDTATYYCVRHGNFGDSYVSWFAYWGQGTTVTVSSASTKGPSVFPLAPSSKSTSGGTAALGCLVKDYFPEPVTVSWNSGALTSGVHTFPAVLQSSGLYSLSSVVTVPSSSLGTQTYICNVNHKPSNTKVDKRVEPKSCGGGGSEVQLVESGGGLAQAGGSLRVSCVASGRPFTKYAWGWFRQAPGKAREFVATITWDGGKTDYADSVKGRFTISKDSAENSIYLQMNSLKPEDTAVYYCAADRNYCVGHRCYVRPDDYDYWGQGTQVTVSS", "light": "AVVTQEPSLTVSPGGTVTLTCGSSTGAVTTSNYANWVQQKPGKSPRGLIGGTNKRAPGVPARFSGSLLGGKAALTISGAQPEDEADYYCALWYSNHWVFGGGTKLTVLGTVAAPSVFIFPPSDEQLKSGTASVVCLLNNFYPREAKVQWKVDNALQSGNSQESVTEQDSKDSTYSLSSTLTLSKADYEKHKVYACEVTHQGLSSPVTKSFNRGECGGGGSEVQLVESGGGLAQAGGSLRVSCVASGRPFTKYAWGWFRQAPGKAREFVATITWDGGKTDYADSVKGRFTISKDSAENSIYLQMNSLKPEDTAVYYCAADRNYCVGHRCYVRPDDYDYWGQGTQVTVSS"}}, "key": {"[1]": {"biological_target": "T1, CD3 heterodimer (Acro Biosystems) (UniProt P07766 23-126)", "T1 sequence (P07766 23-126, one chain of several)": "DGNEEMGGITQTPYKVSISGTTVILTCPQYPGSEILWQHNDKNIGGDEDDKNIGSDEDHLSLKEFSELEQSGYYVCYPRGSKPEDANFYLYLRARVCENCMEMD", "test": "SPR (Biacore T200), CD3 heterodimer on HC30M chip; value given for the high affinity CD3 Fab"}, "[2]": {"biological_target": "T1, CD3 heterodimer (Acro Biosystems)", "test": "SPR (Biacore T200), CD3 heterodimer on HC30M chip; value given for the low affinity CD3 Fab"}, "[3]": {"biological_target": "T2, HLA-A*02:01 in complex with the MAGE-A4 peptide … (human)", "T2 construct": "Recombinant complex as immobilised (500 RU) for SPR; also called HLA-A2/MAGE-A4 complex; pMHC-MAGE-A4 antigen", "test": "SPR, HLA-A*02:01/MAGE-A4 complex on streptavidin chip; measured in monovalent format", "experimental": "Affinity characterization of HLA-A2/MAGE-A4×CD3 bispecific antibodies was performed by surface plasmon resonance (SPR). All experiments were conducted using a Biacore™ T200 Device (Cytiva). To determine the kinetic parameters of the binding of the bispecific antibodies to the HLA-A2/MAGE-A4 complex, a streptavidin chip (SAHC30M, XanTec) was coated according to the manufacturer's instructions with 500 RU HLA-A*02:01 in complex with the MAGE-A4 peptide. The resulting affinities presented herein correspond to the measurements performed with the respective monovalent antigen binding proteins. […] Uncoated channels were used for referencing. Data fitting was performed using a 1:1 Langmuir model."}, "[4]": {"biological_target": "T1, CD3 heterodimer (Acro Biosystems)", "test": "SPR (Biacore T200), CD3 heterodimer on HC30M chip; value given for the mid affinity CD3 Fab"}, "[5]": {"biological_target": "MAGE-A4 peptide … presented by HLA-A*02:01 on cells (human)", "test": "cell-based or functional assay"}}, "note": "Numbering of substitutions follows the chain as printed.", "data": [{"binder": "B1", "values": [{"measurement": "Kd", "setting": "[1]", "value": 1.2, "unit": "nM"}]}, {"binder": "B2", "values": [{"measurement": "Kd", "setting": "[2]", "value": 54, "unit": "nM"}]}, {"binder": "B3", "values": [{"measurement": "Kd", "setting": "[3]", "value": 41, "unit": "nM"}]}, {"binder": "B4", "values": [{"measurement": "Kd", "setting": "[4]", "value": 11, "unit": "nM"}]}, {"binder": "B5", "values": [{"measurement": "Kd", "setting": "[3]", "value": 0.1, "unit": "nM"}]}, {"binder": "B6", "values": [{"measurement": "U20S cell killing, IC50", "setting": "[5]", "value": 0.02, "unit": "nM"}]}]}
